One assay deals with T1, human Tie1 Fc (Homo sapiens, UniProt P35590).
T1 construct: selected against the Tie1 extracellular domain fused to human Fc or to a histidine purification tag
T1 sequence (P35590 22-759 limits assumed): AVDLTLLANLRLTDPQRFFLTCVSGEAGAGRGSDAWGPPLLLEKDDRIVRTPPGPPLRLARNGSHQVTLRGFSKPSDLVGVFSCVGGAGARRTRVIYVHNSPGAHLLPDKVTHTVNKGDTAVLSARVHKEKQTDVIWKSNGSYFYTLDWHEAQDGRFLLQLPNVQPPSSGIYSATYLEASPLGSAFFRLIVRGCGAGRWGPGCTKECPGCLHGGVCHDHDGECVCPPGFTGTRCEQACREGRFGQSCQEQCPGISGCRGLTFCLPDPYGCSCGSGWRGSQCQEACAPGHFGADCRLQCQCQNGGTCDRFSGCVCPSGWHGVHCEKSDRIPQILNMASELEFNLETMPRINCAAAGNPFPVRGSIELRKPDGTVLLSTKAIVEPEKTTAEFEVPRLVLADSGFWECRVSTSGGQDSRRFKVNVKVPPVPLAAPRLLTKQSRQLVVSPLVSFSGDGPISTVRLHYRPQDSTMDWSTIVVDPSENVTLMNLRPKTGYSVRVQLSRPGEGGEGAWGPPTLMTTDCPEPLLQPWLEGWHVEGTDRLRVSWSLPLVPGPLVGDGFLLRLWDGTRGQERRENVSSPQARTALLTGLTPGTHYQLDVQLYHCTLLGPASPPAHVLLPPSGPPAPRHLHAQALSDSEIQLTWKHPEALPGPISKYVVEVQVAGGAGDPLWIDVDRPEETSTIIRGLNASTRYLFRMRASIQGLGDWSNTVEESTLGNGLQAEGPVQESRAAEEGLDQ
As to the kind of experiment: BIAcore, Tie1 Fc over IgG coated on CM5 chip. As to conditions: IgG immobilised; Human Tie1 Fc analyte. The format is binding. The method, then: The germlined E3 IgG1 stock solution 0.63 mg/ml was diluted 1/50 in a buffer of pH4.5 and the parental E3 IgG1 stock solution 0.56 mg/ml (2143-001) was diluted 1/50 in a buffer of pH 4.5. The IgG were directly coated onto a CM5 chip. The surface of the chips was activated with a 7 minute pulse of 0.05M NHS/0.2M EDC and the IgG was flowed over until 780RU germlined E3-IgG and 728 non germlined E3 IgG was coated onto the surface. All flow cells were subsequently deactivated with a 7 minute pulse of 1M ethanolamine hydrochloride pH 8.5. All analysis was performed in HBS buffer. Purified recombinant human Tie1 Fc was diluted 1/28.7 in HBS to obtain a 400 nM stock solution. Serial dilutions were made to obtain 200 nM, 100 nM, 50 nM and 25 nM Tie1 Fc stocks. For analysis of the association phase samples were injected at 30 μl/min for 8.3 minutes using kinject program. This was followed by a 40 minutes dissociation phase. Any antigen remaining associated to the surface was stripped from the IgG surface at a flow of 50 μl/min with two injections of 10 mM glycine pH 1.5 for 30 seconds. All samples were run and analyzed in duplicate
(§1) Sensorgrams were analyzed using the simultaneous ka/kd fitting program with 1:1 model in the BIAEVALUATION™ software 3.1.
For orientation: In SPR one partner is held on a chip, and binding of the other changes the refractive index at the surface.

Another assay addresses T2, mouse Tie1 Fc (Mus musculus, UniProt Q06806).
T2 construct: both dimeric (Tie1-Fc fusion protein) and monomeric (Tie1-HIS) versions of the extracellular domain of the Tie1 were used
T2 sequence (Q06806 23-755 limits assumed): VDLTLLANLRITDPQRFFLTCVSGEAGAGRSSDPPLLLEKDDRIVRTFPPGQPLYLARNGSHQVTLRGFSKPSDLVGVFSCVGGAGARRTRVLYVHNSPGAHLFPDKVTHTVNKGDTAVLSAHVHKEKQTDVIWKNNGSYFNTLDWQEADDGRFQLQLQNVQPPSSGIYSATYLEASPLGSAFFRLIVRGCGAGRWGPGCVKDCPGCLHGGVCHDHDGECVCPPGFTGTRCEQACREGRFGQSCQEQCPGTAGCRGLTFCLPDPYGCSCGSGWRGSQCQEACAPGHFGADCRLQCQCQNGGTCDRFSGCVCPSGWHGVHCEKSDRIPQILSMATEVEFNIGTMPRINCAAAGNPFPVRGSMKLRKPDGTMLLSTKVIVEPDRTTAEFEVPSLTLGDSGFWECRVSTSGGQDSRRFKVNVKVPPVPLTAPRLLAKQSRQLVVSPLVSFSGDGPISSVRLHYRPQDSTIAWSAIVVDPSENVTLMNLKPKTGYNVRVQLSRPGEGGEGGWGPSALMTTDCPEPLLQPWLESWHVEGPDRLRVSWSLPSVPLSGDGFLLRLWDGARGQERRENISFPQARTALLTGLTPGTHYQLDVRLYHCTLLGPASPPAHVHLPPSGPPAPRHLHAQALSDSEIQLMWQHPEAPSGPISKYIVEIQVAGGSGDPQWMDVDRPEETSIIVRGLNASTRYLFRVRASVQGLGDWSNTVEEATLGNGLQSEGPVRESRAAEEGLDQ
Put plainly: BIAcore, mouse Tie1 Fc over IgG coated on CM5 chip. Type of assay: binding. Conditions: IgG immobilised; Mouse Tie1 Fc analyte. On the procedure:
In order to evaluate if the binding behavior had been affected in any way by the conversion of the somatic mutations back to germline, the germlined antibody was produced and tested as an IgG. The germlined E3 was reformatted to an IgG as described. This was then used to transiently transfect HEK293T cells using established procedures. The IgG was purified from the culture supernatant using protein A column chromatography using established procedures and the subsequent IgG was then tested for binding activity using surface plasmon resonance (BIAcore). The germlined E3 IgG1 stock solution 0.63 mg/ml (2146-002) was diluted 1/50 in a buffer of pH 4.5 and the parental E3 IgG1 stock solution 0.56 mg/ml (2143-001) was diluted 1/50 in a buffer of pH 4.5. The IgG were directly coated via onto a CM5 chip. The surface of the chips was activated with a 7 minute pulse of 0.05M NHS/0.2M EDC and the IgG was flowed over until 780RU germlined E3-IgG and 728 non germlined E3 IgG was coated onto the surface. All flow cells were subsequently deactivated with a 7 minute pulse of 1M ethanolamine hydrochloride pH8,5. All analysis was performed in HBS buffer. Purified recombinant mouse Tie1 Fc was diluted 1/6,5 in HBS to obtain a 400 nM stock solution. Serial dilutions were made to obtain 200 nM, 100 nM, 50 nM and 25 nM Tie1 Fc stocks. For analysis of the association phase samples were injected at 30 μl/min for 8.3 minutes using kinject program. This was followed by a 40 minutes dissociation phase. Any antigen remaining associated to the surface was stripped from the IgG surface at a flow of 50 μl/min with two injections of 10 mM glycine pH1.5 for 30 seconds. All samples were run and analyzed in duplicate
as §1

Results on two molecules are retold here after US20100196361A1, “Method of inhibition of vascular development using an antibody” (DYAX CORP., priority 2003, published 2010).

Residue numbers refer to the chain shown, from its start.

B1: E3: human anti-Tie1 antibody from phage Fab library, reformatted as IgG; HC variable SEQ ID NO:114, LC variable SEQ ID NO:116 (antibody, V domains shown)
VH: EVQLLESGGGLVQPGGSLRLSCAASGFTFSMYGMVWVRQAPGKGLEWVSVISPSGGNTGYADSVKGRFTISRDNSKNTLYLQVNSLRAEDTAVYYCARAPRGYSYGYYYWGQGTLVTVSSASTKGPSVFPLAPSSKSTSGG
VL: DIQMTQSPLSLSASVGDRVTITCRASQGIGHYLAWYQQKPGKVPKLLIYTASTLQSGVPSRFSGSGSGTDFTLTINSLQPEDVATYYCQQFNSYPHTFGQGTRLDIK
modifications: IgG constant regions; Synthetically generated peptide
For B1, in the assay with human Tie1 Fc, the koff – broadly, a measure of how fast the partners let go of each other – was 3.61e-05 s⁻¹ and the association rate constant (kon) (commonly a measure of how fast the partners come together) was 6190 M⁻¹ s⁻¹. Also, in the assay with mouse Tie1 Fc, the dissociation rate constant (koff) was determined as 9.2e-05 s⁻¹ and the “kon” value was determined as 6170 M⁻¹ s⁻¹.

B2: DX-2210: E3 antibody in which the light chain has been germlined (antibody, V domains shown)
VH: B1 VH
VL: B1 VL with L9S, N76S, D105E
As to B2, the “koff” value came out at 3.67e-05 s⁻¹ with human Tie1 Fc and 8.99e-05 s⁻¹ in the assay with mouse Tie1 Fc. The results for the “kon” value with human Tie1 Fc and with mouse Tie1 Fc were 7090 M⁻¹ s⁻¹ and 6000 M⁻¹ s⁻¹, respectively.
